According to article PMC3261180:

Columns and labels:
Asp12 = Asp12 (UniProt position 13, LKKAQDTGKIV); experiment: NMR
Asp2 = Asp2 (UniProt position 3, ---MVDFAFEL); experiment: NMR
Asp44 = Asp44 (UniProt position 45, RNAKPDIKEDI); experiment: NMR
Asp48 = Asp48 (UniProt position 49, PDIKEDIEYYA); experiment: NMR
Asp87 = Asp87 (UniProt position 88, ALAVVDPGESR); experiment: NMR
Glu100 = Glu100 (UniProt position 101, ALGGKE-----); experiment: NMR
Glu47 = Glu47 (UniProt position 48, KPDIKEDIEYY); experiment: NMR
Glu50 = Glu50 (UniProt position 51, IKEDIEYYAKL); experiment: NMR
Glu6 = Glu6 (UniProt position 7, VDFAFELKKAQ); experiment: NMR
Glu62 = Glu62 (UniProt position 63, GIPVYEFEGTS); experiment: NMR
Glu64 = Glu64 (UniProt position 65, PVYEFEGTSVE); experiment: NMR
Glu69 = Glu69 (UniProt position 70, EGTSVELGTLL); experiment: NMR
Glu90 = Glu90 (UniProt position 91, VVDPGESRILA); experiment: NMR
[1] = target: Asp3 (position 3, ---GGDGG---); experiment: potentiometry
[2] = target: Glu3 (position 3, ---GGEGG---); experiment: potentiometry
[3] = 298 K, 5.4 M guanidine-HCl, not stated for the denatured samples, unfolded (guanidine-denatured)
[4] = 298 K, low ionic strength, 10 mM sodium citrate/phosphate, no added salt stated, folded (native)
[5] = 333 K, 5.4 M guanidine-HCl, not stated for the denatured samples, unfolded (guanidine-denatured)
[6] = 333 K, low ionic strength, 10 mM sodium citrate/phosphate, no added salt stated, folded (native)
[7] = 298 K, 5.4 M guanidine hydrochloride, free peptide in 5.4 M GdnHCl
[8] = 298 K, no added salt (peptide in nano-pure water), free peptide, no denaturant
[9] = 333 K, 5.4 M guanidine hydrochloride, free peptide in 5.4 M GdnHCl
[10] = 333 K, no added salt (peptide in nano-pure water), free peptide, no denaturant

Work on “50S ribosomal protein L30e, 5R->K variant (L30e*) (Thermococcus celer; R8K;R21K;R42K;R54K;R76K)” yielded a pKa (Asp12; [3]) of 3.56±0.02, a pKa (Asp12; [4]) of 3.69±0.02 and a pKa (Asp12; [5]) of 3.46±0.02. For the same molecule, the pKa (Asp12; [6]) was 3.69±0.03, the pKa (Asp2; [3]) was 3.62±0.01 and the pKa (Asp2; [4]) was 3.13±0.04. For the same molecule, the pKa (Asp2; [5]) was 3.53±0.02, the pKa (Asp2; [6]) was 3.09±0.05 and the pKa (Asp44; [3]) was 3.62±0.01. The pKa (Asp44; [4]) was 3.08±0.04, the pKa (Asp44; [5]) was 3.52±0.02 and the pKa (Asp44; [6]) was 2.88±0.04. It also gave a pKa (Asp48; [3]) of 3.56±0.02, a pKa (Asp48; [4]) of 4.14±0.04 and a pKa (Asp48; [5]) of 3.46±0.02. The pKa (Asp48; [6]) was 4.24±0.04, the pKa (Asp87; [3]) was 3.54±0.02 and the pKa (Asp87; [4]) was 2.50±0.02. The pKa (Asp87; [5]) was 3.47±0.02, the pKa (Asp87; [6]) was 2.49±0.03 and the pKa (Glu100; [3]) was 4.19±0.02. It also gave a pKa (Glu100; [4]) of 4.31±0.03, a pKa (Glu100; [5]) of 4.06±0.02 and a pKa (Glu100; [6]) of 4.38±0.05. For the same molecule, the pKa (Glu47; [3]) was 4.17±0.02, the pKa (Glu47; [4]) was 4.53±0.04 and the pKa (Glu47; [5]) was 4.00±0.02. For the same molecule, the pKa (Glu47; [6]) was 4.56±0.04, the pKa (Glu50; [3]) was 4.16±0.02 and the pKa (Glu50; [4]) was 5.10±0.07. The pKa (Glu50; [5]) was 4.02±0.03, the pKa (Glu50; [6]) was 5.00±0.06 and the pKa (Glu6; [3]) was 4.17±0.02. It also gave a pKa (Glu6; [4]) of 2.34±0.03, a pKa (Glu6; [5]) of 4.00±0.02 and a pKa (Glu6; [6]) of 2.38±0.04. For the same molecule, the pKa (Glu62; [3]) was 4.19±0.02, the pKa (Glu62; [4]) was 3.20±0.06 and the pKa (Glu62; [5]) was 4.03±0.02. It also gave a pKa (Glu62; [6]) of 3.30±0.06, a pKa (Glu64; [3]) of 4.17±0.02 and a pKa (Glu64; [4]) of 4.10±0.06. It also gave a pKa (Glu64; [5]) of 4.00±0.02, a pKa (Glu64; [6]) of 4.06±0.07 and a pKa (Glu69; [3]) of 4.19±0.02. The pKa (Glu69; [4]) was 3.79±0.03, the pKa (Glu69; [5]) was 4.01±0.03 and the pKa (Glu69; [6]) was 3.82±0.03. It also gave a pKa (Glu90; [3]) of 4.16±0.02, a pKa (Glu90; [4]) of 4.17±0.02 and a pKa (Glu90; [5]) of 4.02±0.03. The pKa (Glu90; [6]) was 4.24±0.02.

In the case of GGDGG [Model pentapeptide Ac-GGDGG-NH2 (synthetic)], the pKa [1, 7] is reported as 3.70±0.01, the pKa [1, 8] is reported as 3.69±0.03 and the pKa [1, 9] is reported as 3.64±0.02. For the same molecule, the pKa [1, 10] was 3.61±0.02.

With GGEGG [Model pentapeptide Ac-GGEGG-NH2 (synthetic)] the pKa [2, 7] was 4.18±0.04, the pKa [2, 8] was 4.17±0.03 and the pKa [2, 9] was 4.10±0.02. The pKa [2, 10] was 4.10±0.01.
